Source: patent US6656718B2, “Modified carboxypeptidase enzymes and their use” (Cancer Research Technology Limited, priority 2000, dated 2003)

Columns and labels:
[1] = system: CM79; experiment: CM79 binding to CPG2 variants by ELISA; set-up: species or system mice; conditions: clarified culture supernatants
From the text: CM79 binding and CPG2 enzyme activity of all CPG2 variants were initially tested in clarified culture supernatants for CM79 binding.

[2] = CPG2 enzyme activity of variants; type: biochemical; conditions: clarified culture supernatants
From the text: Thus for example, CPG2 activity may be tested by the ability of the enzyme to hydrolyse methotrexate (MTX). CPG2 hydrolysis of MTX results in a change in absorbance at 320 nm which may be measured by spectrophotometry. CPG2 catalytic activity in solid tissues can be assayed using an indirect HPLC method, measuring, for example, 2,4-diamino-N^10 methypteroic acid (DAMPA, a metabolite of MTX).
CM79 binding and CPG2 enzyme activity of all CPG2 variants were initially tested in clarified culture supernatants for CM79 binding. […] The variant V8 MFE-23::CPG2 indicated the role of the c-terminus in CM79 binding of CPG2 (FIG. 4, Table 1). CM79 bound to all the remaining CPG2 variants (Table 1).
Radiolabelled proteins were FPLC purified using a Superose 12 column (Pharmacia; PBS mobile phase 0.5 ml/min). Gamma radiation emitting fractions at 135 kDa elution point were tested for CPG2 enzyme activity. Protein concentrations were determined using Lowry reagent according to the manufacturer's protocol (BioRad).

CM79 binding [1]: Yes
B1: wild-type CPG2: MFE-23::CPG2 fusion protein with wild-type CPG2: Region 1 KEYGVRD (SEQ ID NO:2), Region 2 GAGK (SEQ ID NO:4) (protein)
chain: ALAQKRDNVLFQAATDEQPAVIKTLEKLVNIETGTGDAEGIAAAGNFLEAELKNLGFTVTRSKSAGLVVGDNIVGKIKGRGGKNLLLMSHMDTVYLKGILAKAPFRVEGDKAYGPGIADDKGGNAVILHTLKLLKEYGVRDYGTITVLFNTDEEKGSFGSRDLIQEEAKLADYVLSFEPTSAGDEKLSLGTSGIAYVQVNITGKASHAGAAPELGVNALVEASDLVLRTMNIDDKAKNLRFNWTIAKAGNVSNIIPASATLNADVRYARNEDFDAAMKTLEERAQQKKLPEADVKVIVTRGRPAFNAGEGGKKLVDKAVAYYKEAGGTLGVEERTGGGTDAAYAALSGKPVIESLGLPGFGYHSDKAEYVDISAIPRRLYMAARLIMDLGAGK
Enzyme Activity [2]: Yes
